# According to patent publication US8299097B2, “Methods for treating inflammatory disorders” (The Brigham and Women's Hospital, Inc., priority 2008, dated 2012):
# Assays:
# human CysLT1R = target: T1, human CysLT1R (Homo sapiens, UniProt Q9Y271); assay: ERK activation in CysLT1R CHO transfectants; assay type: cell-based
# T1 construct: expressed in transfected cells
# T1 sequence (Q9Y271 1-337): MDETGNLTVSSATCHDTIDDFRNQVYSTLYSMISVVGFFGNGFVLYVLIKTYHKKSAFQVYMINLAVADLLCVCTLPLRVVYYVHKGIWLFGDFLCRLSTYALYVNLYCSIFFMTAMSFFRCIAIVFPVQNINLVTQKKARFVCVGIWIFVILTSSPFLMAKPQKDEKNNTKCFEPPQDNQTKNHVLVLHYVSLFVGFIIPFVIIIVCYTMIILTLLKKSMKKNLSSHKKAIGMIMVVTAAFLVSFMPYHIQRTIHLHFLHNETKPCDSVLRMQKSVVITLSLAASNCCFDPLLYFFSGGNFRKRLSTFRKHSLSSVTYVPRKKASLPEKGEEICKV
# Protocol: (§1) FIG. 1. Activation by recombinant human P2Y12 receptors in response to cys-LTs. The human P2Y12 receptor cDNA was cloned in forward and reverse orientation into the expression vector pEF1/His B and transfected into CHO cells using Fugene HD reagent. Stably-expressing clones were selected using G418 (1000 μg/ml), and expression of the construct was confirmed by cytofluorographic detection of the HIS tag. 1A. […] 1B. SDS-PAGE immunoblots showing phosphorylation of ERK2 by CHO cells stably expressing human P2Y12 receptors in reverse (negative control) or forward orientations. […] The blots were stripped and re-probed with an antibody (Ab) recognizing total ERK1 and ERK2. […] 1C. Effect of the selective P2Y12 receptor antagonist 2-MesAMP (MeS) on ligand-induced ERK phosphorylation. P2Y12 receptor expressing CHO cells were stimulated with the same doses of agonists used in 1A, in the absence or presence of 2-MesAMP (100 μM). 1D. Comparison of P2Y12 receptor-mediated responses to cys-LTs with those of recombinant human CysLT1R and CysLT2R expressed in CHO cells, and the effect of the CysLT1R antagonist MK571 (1 μM).
# (§2) A P2Y12 receptor cDNA was amplified by reverse transcriptase polymerase chain reaction (RT-PCR) from RNA extracted from primary hMCs and cloned into a mammalian expression vector. Expression was confirmed by detection of a histidine (HIS) tag by flow cytometry. […]
# human CysLT2R = target: T2, human CysLT2R (Homo sapiens, UniProt Q9NS75); assay: ERK activation in CysLT2R CHO transfectants; assay type: cell-based
# T2 construct: expressed in transfected cells
# T2 sequence (Q9NS75 1-346): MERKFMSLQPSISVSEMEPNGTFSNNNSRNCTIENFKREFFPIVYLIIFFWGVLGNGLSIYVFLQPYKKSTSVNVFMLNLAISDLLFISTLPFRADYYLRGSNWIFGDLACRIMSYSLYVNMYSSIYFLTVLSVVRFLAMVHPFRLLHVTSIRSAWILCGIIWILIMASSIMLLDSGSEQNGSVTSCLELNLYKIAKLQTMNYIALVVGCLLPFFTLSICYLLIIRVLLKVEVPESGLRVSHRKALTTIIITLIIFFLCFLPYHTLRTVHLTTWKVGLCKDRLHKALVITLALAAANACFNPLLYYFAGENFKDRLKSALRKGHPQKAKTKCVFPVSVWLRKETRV
# Protocol: as §1, §2
# human P2Y12 = human P2Y12 (Homo sapiens, UniProt Q9H244); assay: ERK activation (phosphorylation immunoblot) in P2Y12-expressing CHO cells; assay type: cell-based; design: polyhistidine (HIS) tag (C); expressed in transfected cells; conditions: 2-MesAMP 100 μM, MK571 1 μM
# Sequence of human P2Y12 (Q9H244 whole entry): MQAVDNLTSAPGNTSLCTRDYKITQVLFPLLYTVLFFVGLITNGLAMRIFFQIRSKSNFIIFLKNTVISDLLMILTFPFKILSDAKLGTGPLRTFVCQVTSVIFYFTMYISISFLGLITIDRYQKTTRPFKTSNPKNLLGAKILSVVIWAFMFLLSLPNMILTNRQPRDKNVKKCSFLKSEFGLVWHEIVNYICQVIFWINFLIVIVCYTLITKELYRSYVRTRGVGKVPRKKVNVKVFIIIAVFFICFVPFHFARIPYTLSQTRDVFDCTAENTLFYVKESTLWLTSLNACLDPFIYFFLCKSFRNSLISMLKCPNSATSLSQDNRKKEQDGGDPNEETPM
# Protocol: FIG. 1. Activation by recombinant human P2Y12 receptors in response to cys-LTs. The human P2Y12 receptor cDNA was cloned in forward and reverse orientation into the expression vector pEF1/His B and transfected into CHO cells using Fugene HD reagent. Stably-expressing clones were selected using G418 (1000 μg/ml), and expression of the construct was confirmed by cytofluorographic detection of the HIS tag. 1A. […] Results in second experiment were identical. 1B. SDS-PAGE immunoblots showing phosphorylation of ERK2 by CHO cells stably expressing human P2Y12 receptors in reverse (negative control) or forward orientations. […] The blots were stripped and re-probed with an antibody (Ab) recognizing total ERK1 and ERK2. […] 1C. Effect of the selective P2Y12 receptor antagonist 2-MesAMP (MeS) on ligand-induced ERK phosphorylation. P2Y12 receptor expressing CHO cells were stimulated with the same doses of agonists used in 1A, in the absence or presence of 2-MesAMP (100 μM). 1D. Comparison of P2Y12 receptor-mediated responses to cys-LTs with those of recombinant human CysLT1R and CysLT2R expressed in CHO cells, and the effect of the CysLT1R antagonist MK571 (1 μM). Data in 1B-1D are from individual experiments that were repeated at least 3 times with similar results.
# FIG. 8. […] Cells were stably transfected with the human P2Y12 construct and stimulated for 15 minutes with the indicated ligand concentrations. […] Results in a second experiment were similar.
# A P2Y12 receptor cDNA was amplified by reverse transcriptase polymerase chain reaction (RT-PCR) from RNA extracted from primary hMCs and cloned into a mammalian expression vector. Expression was confirmed by detection of a histidine (HIS) tag by flow cytometry. Another cohort of CHO cells were stably transfected with a P2Y12 receptor construct in reverse orientation as a negative control. […] The cys-LT-induced ERK activation blocked by pre-treatment of the cells with pertussis toxin (PTX), was attenuated by treatment with the P2Y12 receptor-selective antagonist 2-methylthioadenosine monophosphate (2-MesAMP) (FIG. 1C), and was resistant to MK571, an inhibitor that blocks CysLT1R and some P2Y receptors (Mamedova, L., et al. 2005. Biochem. Pharmacol. 71:115-125). […] These responses were resistant to PTX and 2-MesAMP, and susceptible to MK571 in the case of the CysLT1R transfectants.
# A human P2Y12 receptor cDNA was amplified by 30 cycles of PCR from reverse-transcribed total RNA extracted from primary cord blood hMCs. The primer sequences were 5′-[…] (SEQ ID NO: 1) and 3′-[…] (SEQ ID NO: 2). The fragment was cloned into a TA vector (INVITROGEN™). After verifying the nucleotide sequence, the fragment was subcloned into the multiple cloning site of the expression vector pEF1/His B, encoding a C-terminal polyhistidine (HIS) tag. […]
# LAD2 cells [1] = assay: MIP-1β generation by LAD2 cells (ELISA); assay type: cell-based, human; conditions: apyrase 10 μM, LTE4 500 nM, 6 h
# Protocol: FIG. 2. Requirement for P2Y12 receptors in LTE4-mediated LAD2 cell activation. 2A. Calcium flux of LAD2 cells stimulated with the indicated agonists (500 nM) in the presence or absence of the P2Y12 receptor-selective antagonist 2-MeSAMP (100 μM). […] 2B. […] Cells sensitized overnight with IgE and challenged with anti-IgE were used as the positive control. 2C. […] Results in 2B and 2C are mean±SEM from three independent experiments each. 2D. Effect of shRNA-mediated knockdown of P2Y12 receptor mRNA expression by LAD2 cells.
# (§3) FIG. 9. Effect of apyrase treatment on LT-mediated activation of LAD2 cells. 9A. […] Concentrations of MIP-1β were measured by ELISA. 9B. […] Lysates were resolved by SDS-PAGE and probed with the indicated antibodies against phospho- and total ERK. Results in 9A are the mean±½ range from two experiments, while 9B is representative of two experiments.
# (§4) Pre-treatment of the LAD2 cells with 2-MesAMP blocked the LTE4-mediated increment in MIP-1β production by >50% (FIG. 2B). […] To exclude potential off-target effects of the inhibitors, samples of LAD2 cells were transfected with lentiviruses encoding a P2Y12 sequence-specific shRNA, a CysLT1R-specific shRNA, or an empty vector control before stimulation. […] LTE4- and LTD4-dependent production of PGD2 were abrogated by the knockdowns of P2Y12 and CysLT1R, respectively (FIG. 2C, bottom). Neither GPCR knockdown altered MIP-1β generation or PGD2 production in response to IgE-anti-IgE (FIG. 2C). LTE4-mediated MIP-1β generation (FIG. 9A) and ERK activation (FIG. 9B) were not altered by treatment of LAD2 cells with apyrase to degrade extracellular ADP.
# The concentration of MIP-1β was measured by an ELISA (ENDOGEN®). PGD2 was quantitated by a PGD2-methoxylamine hydrochloride (PGD2-MOX) assay.
# LAD2 cells [2] = assay: ERK activation in LAD2 cells with apyrase; assay type: cell-based, human; conditions: LTE4 500 nM, 15 minutes
# Protocol: as §3, §4
# After stimulation with the respective agonists, LAD2 cells and hMCs (0.5×10^6) were lysed with lysis buffer (BD Bioscience) supplemented with protease inhibitor cocktail (Roche) and sodium vanadate (1 mM). Lysates were subjected to 4-12% SDS-PAGE and transferred to PVDF membranes. […]
Substance,effect on cys-LT-induced ERK activation (human CysLT1R),effect on cys-LT-induced ERK activation (human CysLT2R),effect on cys-LT-induced ERK activation (human P2Y12),effect on LTE4-mediated MIP-1β generation (LAD2 cells [1]),effect on LTE4-mediated ERK activation (LAD2 cells [2])
pertussis toxin,resistant,resistant,blocked,,
apyrase,,,,not altered,not altered
